# Experimental data from article PMC11416365, “Exploring the manganese-dependent interaction between a transcription factor and its corresponding DNA: insights from gas-phase electrophoresis on a nES GEMMA instrument” (Analytical and Bioanalytical Chemistry, 2024).
# B1: MntR protein from B. subtilis (natural protein, Bacillus subtilis, UniProt P54512 1-142, looked up)
# chain: MTTPSMEDYIEQIYMLIEEKGYARVSDIAEALAVHPSSVTKMVQKLDKDEYLIYEKYRGLVLTSKGKKIGKRLVYRHELLEQFLRIIGVDEEKIYNDVEGIEHHLSWNSIDRIGDLVQYFEEDDARKKDLKSIQKKTEHHNQ
# notes: Manganese-dependent transcription factor MntR of Bacillus subtilis, UniProt P54512; Theoretical mass of the dimer printed as 33.8 kDa; also called BMntR; B. subtilis MntR protein; source: purified as before [3]
# Target: the molecule itself
# Assay: nES GEMMA (gas-phase electrophoresis, nES DMA); BMntR alone at different concentrations, electrosprayed from 40 mM ammonium acetate pH 8.4; EM diameter 5.9 nm turned into a molecular weight by an EM diameter/MW correlation (34.6 kDa against 33.8 kDa theoretical for the dimer)
protein,measurement,value
B1,stoichiometry N,2
